Measurements published in US20140093526A1 (RESEARCH FOUNDATION FOR MICROBIAL DISEASES OF OSAKA …, published 2014).

T1: HHV-6B gQ1 carboxy-terminal deletion mutant, position 1 to position 483 (human herpesvirus 6B (HHV-6B), UniProt Q9QJ11 25-483)
T1 construct: Expressed in 293T cells together with gQ2; also called gQ1 1-483
T1 chain: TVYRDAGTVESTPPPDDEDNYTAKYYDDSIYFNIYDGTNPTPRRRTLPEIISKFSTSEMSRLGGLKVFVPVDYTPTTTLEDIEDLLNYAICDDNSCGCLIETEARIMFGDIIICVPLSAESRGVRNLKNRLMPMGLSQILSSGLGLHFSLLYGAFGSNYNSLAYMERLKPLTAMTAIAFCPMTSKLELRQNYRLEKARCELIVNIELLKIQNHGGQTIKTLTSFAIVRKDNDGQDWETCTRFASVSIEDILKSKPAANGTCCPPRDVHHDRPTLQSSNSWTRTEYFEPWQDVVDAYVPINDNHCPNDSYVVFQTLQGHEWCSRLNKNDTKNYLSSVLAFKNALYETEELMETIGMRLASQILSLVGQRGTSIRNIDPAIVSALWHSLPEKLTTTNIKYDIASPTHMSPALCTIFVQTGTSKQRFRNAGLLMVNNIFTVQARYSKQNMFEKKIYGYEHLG

T2: HHV-6B gQ1 carboxy-terminal deletion mutant, position 1 to position 466 (human herpesvirus 6B (HHV-6B), UniProt Q9QJ11 25-466)
T2 construct: Expressed in 293T cells together with gQ2; also called gQ1 1-466
T2 chain: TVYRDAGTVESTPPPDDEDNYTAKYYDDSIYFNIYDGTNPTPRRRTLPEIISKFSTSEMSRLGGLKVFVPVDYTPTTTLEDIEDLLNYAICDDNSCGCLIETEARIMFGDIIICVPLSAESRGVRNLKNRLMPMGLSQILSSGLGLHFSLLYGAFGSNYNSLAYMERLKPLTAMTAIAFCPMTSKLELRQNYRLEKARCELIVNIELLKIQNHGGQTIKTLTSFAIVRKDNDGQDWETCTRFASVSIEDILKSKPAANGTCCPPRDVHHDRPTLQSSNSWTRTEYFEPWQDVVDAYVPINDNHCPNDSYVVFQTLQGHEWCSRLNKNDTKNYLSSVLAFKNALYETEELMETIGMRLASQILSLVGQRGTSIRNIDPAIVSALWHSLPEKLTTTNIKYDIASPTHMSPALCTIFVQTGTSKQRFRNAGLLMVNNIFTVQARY

T3: HHV-6B gQ1 carboxy-terminal deletion mutant, position 1 to position 451 (human herpesvirus 6B (HHV-6B), UniProt Q9QJ11 25-451)
T3 construct: Expressed in 293T cells together with gQ2; also called gQ1 1-451
T3 chain: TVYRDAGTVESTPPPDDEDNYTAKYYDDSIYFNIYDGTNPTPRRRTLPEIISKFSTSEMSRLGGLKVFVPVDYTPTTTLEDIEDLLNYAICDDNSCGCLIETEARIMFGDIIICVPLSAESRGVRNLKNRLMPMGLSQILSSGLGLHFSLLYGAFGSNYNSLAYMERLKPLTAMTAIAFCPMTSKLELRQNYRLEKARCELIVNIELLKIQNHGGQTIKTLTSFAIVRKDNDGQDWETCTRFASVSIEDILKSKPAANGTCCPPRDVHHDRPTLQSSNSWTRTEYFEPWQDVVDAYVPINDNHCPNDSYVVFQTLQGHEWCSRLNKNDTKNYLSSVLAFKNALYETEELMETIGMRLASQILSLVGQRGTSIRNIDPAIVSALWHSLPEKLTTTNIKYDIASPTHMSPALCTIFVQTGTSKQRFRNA

B1: HHV-6B glycoprotein Q2 (gQ2) (other)
chain: LPFFSTLPKITSCCDHYVVLNSLSSVSSSTPTCLDGEILFQNAGQKFCRPFTDNRTIVYTMQDQVQRPWSVTWMDFNLVISDYGRAVIENLTESAMSAHKNGPRYLQMETFISDLFRYECHRDNRYVLEKKLQMFYPTTHMNELLFYPSDPTLPSPYGNGHY
notes: Co-expressed with gQ1 from plasmid in cells (293T); also called HHV-6B gQ2; BgQ2
B2: monoclonal antibody KH-1 (anti-HHV-6B gQ1 neutralizing antibody) (antibody, V domains shown)
VH: EVQLQQSGPELEKPGASVKISCKASGYSFTGYNMNWVKQSNGKRLEWIGNIDPYYGGASYNQKFKGKATLTVDKSSTTAYMQLQSLTSEDSAVYYCARGGYGRYFDVWGAGTAVTVSS
VL: QIVLTQSPAIMSASPGEKVTMTCSASSSISYMHWYQQKPGTSPKRWIYDTSKLASGVPARFSGSGSGTSYSLTISNMESEDAATYYCHQRSRYHTFGGGTRLEIKR
notes: Mouse (BALB/c) hybridoma antibody; also called MAb KH-1; anti-gQ1 monoclonal antibody KH-1

How the values were obtained:
[1] = target: T4, HHV-6B glycoprotein Q1 (gQ1), full length, wild type (human herpesvirus 6B (HHV-6B), UniProt Q9QJ11 25-488); experiment: co-expression in cells
T4 construct: Viral envelope glycoprotein; Tested in lysates of HHV-6B (HST strain)-infected cells (immunoprecipitation) and expressed from plasmid in 293T cells (IFA), alone or with gQ2; also called HHV-6B gQ1; BgQ1

[2] = target: T1, HHV-6B gQ1 carboxy-terminal deletion …; experiment: IFA on 293T cells co-transfected with the gQ1 mutant and gQ2
[3] = target: T2, HHV-6B gQ1 carboxy-terminal deletion …; experiment: as above
[4] = target: T3, HHV-6B gQ1 carboxy-terminal deletion …; experiment: as above
[5] = target: T5, HHV-6B gQ1 point mutant C487W E488Q (human herpesvirus 6B (HHV-6B), UniProt Q9QJ11 25-486); experiment: IFA with KH-1 on 293T cells expressing the point mutant
T5 construct: Expressed in 293T cells; W is used here

[6] = target: T6, HHV-6B gQ1 point mutant E488Q G489V (human herpesvirus 6B (HHV-6B), UniProt Q9QJ11 25-487); experiment: as above
T6 construct: Expressed in 293T cells

Row | Binder | binding result [1] | binding result [2] | binding result [3] | binding result [4] | binding result [5] | binding result [6]
1 | B1 | binds | – | – | – | – | –
2 | B2 | – | no binding | no binding | no binding | no binding | no binding
